Results as given in patent US20210261641A1 (Novo Nordisk, published 2021).

B1: GLP-1 anti TfR-Fab fusion protein (compound of Example 6 / FIG. 6, SEQ ID NO: 11) (other)
light: HGEGTFTSDVSSYLEEQAAREFIAWLVKGRPGGGSGGGSGGGSGGGSDIQMTQSPASLSASLEEIVTITCQASQDIGNWLAWYQQKPGKSPQLLIYGATSLADGVPSRFSGSRSGTQFSLKISRVQVEDIGIYYCLQAYNTPWTFGGGTKLELKRADAAPTVSIFPPSSEQLTSGGASVVCFLNNFYPKDINVKWKIDGSERQNGVLNSWTDQDSKDSTYSMSSTLTLTKDEYERHNSYTCEATHKTSTSPIVKSFNRNEC
heavy: EVQLVESGGGLVQPGNSLTLSCVASGFTFSNYGMHWIRQAPKKGLEWIAMIYYDSSKMNYADTVKGRFTISRDNSKNTLYLEMNSLRSEDTAMYYCAVPTSHYVVDVWGQGVSVTVSSAKTTPPSVYPLAPGSAAQTNSMVTLGCLVKGYFPEPVTVTWNSGSLSSGVHTFPAVLQSDLYTLSSSVTVPSSTWPSETVTCNVAHPASSTKVDKKIVPRDCGHHHHHHHHHH
notes: Two-chain Fab fusion; also called GLP-1-(GGGS)4-aTfR light chain + aTfR-(His)10 heavy chain
B2: Vivotag 750 labelled GLP-1 anti TfR-Fab fusion protein (compound of Example 8 / FIG. 8) (other)
light: B1 light
heavy: B1 heavy
modifications: VivoTag750 (NHS ester) randomly attached to amines; mixture of 0, 1, 2, 3 labels per molecule (average about 1)
notes: The label positions are not defined; also called GLP-1-Active TfR; fluorescence labelled GLP-1 anti TfR-Fab fusion protein
B3: GLP-1 control Fab conjugate (compound of Example 14 / FIG. 14) (other)
light: DIVMTQTPLSLSVTPGQPASISCRSSQSLLHSNGNTYLHWYLQKPGQSPQLLIYKVSNRFSGVPDRFSGSGSGTDFTLKISRVEAEDVGVYYCSQSTHVPWTFGQGTKVEIKRTVAAPSVFIFPPSDEQLKSGTASVVCLLNNFYPREAKVQWKVDNALQSGNSQESVTEQDSKDSTYSLSSTLTLSKADYEKHKVYACEVTHQGLSSPVTKSFNRGEC
heavy: EVQLVESGGGLVQPGNSLTLSCVASGFTFSNYGMHWIRQAPKKGLEWIAMIYYDSSKMNYADTVKGRFTISRDNSKNTLYLEMNSLRSEDTAMYYCAVPTSHYVVDVWGQGVSVTVSSASTKGPSVFPLAPCSRSTSESTAALGCLVKDYFPEPVTVSWNSGCLTSGVHTFPAVLQSSGLYSLSSVVTVPSSSLGTKTYTCNVDHKPSNTKVDKRVESK
peptide: HGEGTFTSDVSSYLEEQAAREFIAWLVRGKG
modifications: epsilon amino group of Lys at position 36 (GLP-1(7-37) numbering) carries the linker -Ado-gGlu-Ado-, joined via -CH2-C(O)- to Cys 382 of the Fab; thiol of Cys 382 (numbering of FIG. 14 / SEQ ID NO: 5) linked via Chem. 2 -CH2-C(O)-Ado-gGlu-Ado- to the GLP-1 analogue
B4: GLP-1 anti TfR-Fab conjugate (compound of Example 15 / FIG. 15) (other)
light: DIQMTQSPASLSASLEEIVTITCQASQDIGNWLAWYQQKPGKSPQLLIYGATSLADGVPSRFSGSRSGTQFSLKISRVQVEDIGIYYCLQAYNTPWTFGGGTKLELKRTVAAPSVFIFPPSDEQLKSGTASVVCLLNNFYPREAKVQWKVDNALQSGNSQESVTEQDSKDSTYSLSSTLTLSKADYEKHKVYACEVTHQGLSSPVTKSFNRGEC
heavy: B3 heavy
peptide: B3 peptide
modifications: epsilon amino group of Lys at position 36 (GLP-1(7-37) numbering) carries the linker -Ado-gGlu-Ado-, joined via -CH2-C(O)- to Cys 377 of the Fab; thiol of Cys 377 (numbering of FIG. 15 / SEQ ID NO: 3) linked via Chem. 2 -CH2-C(O)-Ado-gGlu-Ado- to the GLP-1 analogue
B5: GLP-1 anti TNP-Fab fusion protein (compound of Example 5 / FIG. 5, SEQ ID NO: 8) (other)
light: HGEGTFTSDVSSYLEEQAAREFIAWLVKGRPGGGSGGGSGGGSGGGSDIVMTQTPLSLSVTPGQPASISCRSSQSLLHSNGNTYLHWYLQKPGQSPQLLIYKVSNRFSGVPDRFSGSGSGTDFTLKISRVEAEDVGVYYCSQSTHVPWTFGQGTKVEIKRTVAAPSVFIFPPSDEQLKSGTASVVCLLNNFYPREAKVQWKVDNALQSGNSQESVTEQDSKDSTYSLSSTLTLSKADYEKHKVYACEVTHQGLSSPVTKSFNRGEC
heavy: QVQLQESGPGLVKPSETLSLTCTVSGGSISSGYWNWIRQPPGKGLEWIGTISYSGDTYYNPSLKSRVTISVDTSKNQFSLKLSSVTAADTAVYYCARYGSYVFDYWGQGTTVTVSSASTKGPSVFPLAPCSRSTSESTAALGCLVKDYFPEPVTVSWNSGALTSGVHTFPAVLQSSGLYSLSSVVTVPSSSLGTKTYTCNVDHKPSNTKVDKRVESKHHHHHHHHHH
modifications: N-terminal residue found as pyroglutamic acid in the purified protein
notes: Two-chain Fab fusion; also called GLP-1-(GGGS)4-aTNP light chain + aTNP-(His)10 heavy chain
B6: GLP-1 control Fab fusion protein (compound of Example 7 / FIG. 7, SEQ ID NO: 12) (other)
light: B5 light
heavy: B1 heavy
notes: Hybrid of the anti-TNP light chain fusion and the anti-TfR heavy chain; also called hybrid construct
B7: Vivotag 750 labelled GLP-1 control Fab fusion protein (compound of Example 9 / FIG. 9) (other)
light: B5 light
heavy: B1 heavy
modifications: VivoTag750 (NHS ester) randomly attached to amines; mixture of 0, 1, 2, 3 labels per molecule (average about 1)
notes: The label positions are not defined; also called fluorescence labelled GLP-1 control Fab fusion protein

Molecular target: T1, human GLP-1 receptor (human, UniProt P43220 24-463)
T1 construct: whole, on cells
Test: displacement of [125I]-GLP-1(7-36)NH2 from BHK membranes with human GLP-1R, SPA, low HSA
Procedure: 1. For the receptor binding assay in the presence of low HSA (0.001%) 50 μl of the assay buffer was added to each well of an assay plate. Assay continued with step 3. 2. For the receptor binding assay in the presence of high HSA (2.0%) 50 μl of the 8% albumin stock was added to each well of an assay plate. Assay continued with step 3. 3. Test compounds were serially diluted to give the following concentrations: 8×10⁻⁷ M, 8×10⁻⁸ M, 8×10⁻⁹ M, 8×10⁻¹° M, 8×10⁻¹¹ M, 8×10⁻¹² M and 8×10⁻¹³ M. Twenty-five μl were added to appropriate wells in the assay plate. 4. Cell membrane aliquots were thawed and diluted to their working concentration. Fifty μl were added to each well in the assay plate. 5. WGA SPA beads were suspended in assay buffer at 20 mg/ml. The suspension was diluted to 10 mg/ml in assay buffer just prior to addition to the assay plate. Fifty μl were added to each well in the assay plate. 6. The incubation was started by adding 25 μl of 480 pM solution of [¹²⁵I]-GLP-1]-(7-36) NH₂ to each well of the assay plate. A 25 μl aliquot was reserved for measuring total counts/well. 7. The assay plate was incubated for 2 h at 30° C. 8. The assay plate was centrifuged for 10 min. 9. The assay plate was read in a Packard TopCount NXT instrument.
The data from the TopCount instrument were transferred to GraphPad Prism software. The software averaged the values for the replicates and performed a non-linear regression. IC₅₀ values were calculated by the software and reported in nM.

Row | Binder | IC50 [nM]
1 | B1 | 3.28
2 | B2 | 9.61
3 | B3 | 55.9
4 | B4 | 32.5
5 | B5 | 12.5
6 | B6 | 2.39
7 | B7 | 3.89

Molecular target: T1, human GLP-1 receptor
Test: cell-based or functional assay

Row | Binder | EC50/pM (0% HSA), in vitro potency, CRE luciferase reporter gene assay [pM]
8 | B1 | 48.3
9 | B2 | 92.8
10 | B3 | 818
11 | B4 | 435
12 | B5 | 267
13 | B6 | 52.4
14 | B7 | 58.6

Molecular target: T2, mouse transferrin receptor (mouse, UniProt Q62351 1-763)
T2 construct: whole, on cells; also called TfR
Test: inhibition of uptake of 5 nM Cy5-labelled anti TfR-Fab into MEF-1 cells (mouse TfR), high-content imaging
Procedure: The day before each assay the cells were plated out at 5000 cells/well. 2. On the assay day the cells were washed with HBSS containing 0.1% (w/v) HSA. 3. Test compounds were serially diluted to give the following concentrations: 2×10⁻⁶ M, 2×10⁻⁷ M, 2×10⁻⁸ M, 2×10⁻⁹ M, 2×10⁻¹° M, 2×10⁻¹¹ M, 2×10⁻¹² M and 2×10⁻¹³ M. 100 μl of each was added to appropriate wells in the assay plate. 4. To each of the wells the fluorescently-labelled Fab fragment was added to a final concentration of 5 nM. 5. The plates were incubated at 37° C. for 15 min. After incubation the buffer was removed and the cells were washed with HBSS containing 0.1% (w/v) HSA. 6. Fifty μl of cold 4% PFA was added in a fume hood. […] The assay plate was read in a high-content imaging instrument (IN Cell 2200 instrument, GE).
The data from the IN Cell instrument was analysed using the software that was supplied with the instrument. […] The amount of fluorescence that was internalised was calculated by defining granules visible in the Cy5 channel of the instrument and corresponded to internalised Cy5-labelled Fab fragment. The number and intensity of granules in each cell were calculated. The readout from the instrument that was used for further calculations was the total area of the granules divided by the number of cells in each acquisition field. […] IC50 values were calculated by the software and reported in nM.

T2 sequence (Q62351 whole entry): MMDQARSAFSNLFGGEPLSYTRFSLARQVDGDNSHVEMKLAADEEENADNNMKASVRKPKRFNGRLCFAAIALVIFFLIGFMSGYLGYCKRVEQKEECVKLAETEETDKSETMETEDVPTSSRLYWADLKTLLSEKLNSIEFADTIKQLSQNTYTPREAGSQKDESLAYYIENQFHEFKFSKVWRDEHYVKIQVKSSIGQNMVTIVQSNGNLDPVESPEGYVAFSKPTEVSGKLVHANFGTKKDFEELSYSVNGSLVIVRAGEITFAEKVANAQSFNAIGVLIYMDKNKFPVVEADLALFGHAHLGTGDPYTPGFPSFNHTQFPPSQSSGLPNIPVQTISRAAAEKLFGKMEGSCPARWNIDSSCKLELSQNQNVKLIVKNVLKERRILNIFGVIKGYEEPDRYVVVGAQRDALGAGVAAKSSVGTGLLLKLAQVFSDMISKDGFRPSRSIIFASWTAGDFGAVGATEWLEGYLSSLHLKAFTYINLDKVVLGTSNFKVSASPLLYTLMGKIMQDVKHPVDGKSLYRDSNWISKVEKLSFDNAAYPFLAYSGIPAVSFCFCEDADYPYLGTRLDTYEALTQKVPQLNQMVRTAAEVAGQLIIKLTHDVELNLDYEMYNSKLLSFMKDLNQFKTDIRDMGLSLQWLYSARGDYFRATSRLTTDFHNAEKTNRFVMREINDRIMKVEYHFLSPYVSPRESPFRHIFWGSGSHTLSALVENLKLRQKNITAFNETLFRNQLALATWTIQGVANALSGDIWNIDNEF

Row | Binder | IC50 [nM]
15 | B4 | 17.4
